Assays:
[1] = test system: 1 cm incisional rat wounds; assay: Reduction in scarring of rat wounds treated with IL-10 in two incidences of treatment; format: in vivo; conditions: for percentage reduction in scarring compared to placebo control: approximately 24 hours apart
Protocol: FIG. 13 is a graph showing the percentage reduction in scarring, as compared to placebo control, achieved in scars formed on healing of 1 cm incisional rat wounds treated with IL-10 administered by means of intradermal injection in two incidences of treatment, the first prior to wounding and the second approximately 24 hours later. Wounds dosed with IL-10 received either two injections of 500 ng/100 μl IL-10, two injections of 1000 ng/100 μl IL-10, or an escalating dose regime in accordance with the present invention, in which the first injection comprised 500 ng/100 μl IL-10 and the second injection comprised 1000 ng/100 μl IL-10.
Arrow heads mark the ends of the scars 70 days post wounding.

[2] = test system: inflammatory cells in 1 cm incisional rat wounds; assay: Percentage of inflammatory cells (CD68 staining) in rat wounds; format: in vivo; conditions: 3 days post treatment
Description: Wounds were excised from the experimental rats at 3 days post treatment, fixed in 10% (v/v) buffered formal saline, processed for histology and stained with CD68 to assess inflammatory cell numbers.

B1: IL-10: interleukin-10, anti-scarring agent; amino acid sequence of human IL-10 in Sequence ID No. 3 (protein, listed as Homo sapiens)
chain: MSPGQGTQSENSCTHFPGNLPNMLRDLRDAFSRVKTFFQMKDQLDNLLLKESLLEDFKGYLGCQALSEMIQFYLEEVMPQAENQDPDIKAHVNSLGENLKTLRLRLRRCHRFLPCENKSKAVEQVKNAFNKLQEKGIYKAMSEFDIFINYIEAYMTMKIRN
[1]; escalating 500 then 1000 ng/100 μl versus 500 ng/100 μl twice, 70 days post wounding
  inhibition of scarring, macroscopic images: greater inhibition of scarring
[1]; escalating: 500 ng/100 μl then 1000 ng/100 μl approximately 24 hours later
  reduction in scarring versus constant doses: much larger magnitude of effect
[1]; two injections of 500 ng/100 μl
  percentage reduction in scarring compared to placebo control: 27.5%
[1]; two injections of 1000 ng/100 μl
  percentage reduction in scarring compared to placebo control: 22.8%
[2]
  infiltration of inflammatory cells into the wound compared to controls: reduces infiltration of inflammatory cells
[2]; escalating: 500 ng/100 μl then 1000 ng/100 μl
  inflammatory cell numbers versus same dose given twice: surprisingly marked decrease in inflammatory cell numbers

Reference: patent US20100266532A1, “METHODS FOR INHIBITING SCARRING” (Renovo Limited, priority 2007, published 2010)
